Experimental data taken from publication PMC4746636.
Values joined by “and” are separate entries in the source; they are usually repeats but may differ in a detail not shown here. Equal entries are not always repeated.

T1: TRF2 (full length, recombinant His6-tagged) (human), Q15554
T1 chain: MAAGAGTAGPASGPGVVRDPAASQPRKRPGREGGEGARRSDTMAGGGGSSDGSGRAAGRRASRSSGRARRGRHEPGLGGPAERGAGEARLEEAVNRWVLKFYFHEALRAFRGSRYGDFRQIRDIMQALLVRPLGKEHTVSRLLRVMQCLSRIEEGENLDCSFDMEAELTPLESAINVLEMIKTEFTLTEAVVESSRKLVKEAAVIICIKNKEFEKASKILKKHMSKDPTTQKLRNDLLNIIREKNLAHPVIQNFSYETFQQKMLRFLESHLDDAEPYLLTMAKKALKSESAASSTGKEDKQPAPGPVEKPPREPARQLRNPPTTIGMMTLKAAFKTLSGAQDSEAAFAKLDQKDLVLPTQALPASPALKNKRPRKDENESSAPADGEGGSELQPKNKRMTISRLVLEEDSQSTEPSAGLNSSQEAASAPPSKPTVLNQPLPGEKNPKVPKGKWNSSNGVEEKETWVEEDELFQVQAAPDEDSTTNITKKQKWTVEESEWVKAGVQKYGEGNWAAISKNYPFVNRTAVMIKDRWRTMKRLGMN

B1: TRF2 (full length, recombinant His6-tagged), Q15554 1-542 (natural protein)
chain: T1 chain

How the values were obtained:
TRF2 = TRF2 (UniProt Q15554); assay: AFM imaging; details: N = 126; same conditions as T270; EMSA: 5 nM DNA, 100 nM TRF2, agarose gel; buffer, salt, pH and temperature not given in the material; AFM compaction comparison of TRF2ΔB at 300 nM protein
[1] = target: T1, TRF2 (full length, recombinant …); assay: AFM volume analysis; TRF2 protein alone deposited on mica; AFM volume converted to oligomeric state by a calibration curve of volume against molecular weight; monomer to dimer; details: remark: other sources report otherwise
[2] = target: T1, TRF2 (full length, recombinant …); assay: AFM volume analysis; TRF2 (400 nM, mixed with an equal volume of DNA) incubated with linear T270 DNA (270 TTAGGG repeats) for 30 min in 50 mM HEPES, 150 mM KCl, pH 7.5, diluted 10 fold and deposited on mica; volumes of small DNA-bound complexes (< 500 nm^3); details: remark: other sources report otherwise

| Molecule | binding signal (% DNA with large complexes) (TRF2) | stoichiometry N [1] | stoichiometry N [2] |
| --- | --- | --- | --- |
| DNA with no telomeric sequences | < 8 |  |  |
| B1 |  | 2 | 2 and 4 |
